According to patent publication US20240117018A1:

Key:
[1] = molecular target: HIV-1 Env pseudovirus X2088_c9 (HIV-1); experiment: cell-based or functional assay
[2] = molecular target: HIV-1 Env pseudovirus BJOX028000.10.3 (HIV-1); experiment: cell-based or functional assay
[3] = molecular target: HIV-1 Env pseudovirus BJOX010000.06.2 (HIV-1); experiment: cell-based or functional assay
[4] = molecular target: HIV-1 Env pseudovirus CNE5 (HIV-1); experiment: cell-based or functional assay
[5] = molecular target: HIV-1 Env pseudovirus 211-9 (HIV-1); experiment: cell-based or functional assay
[6] = molecular target: HIV-1 Env pseudovirus C1080.c03 (HIV-1); experiment: cell-based or functional assay
[7] = molecular target: HIV-1 Env pseudovirus 235-47 (HIV-1); experiment: cell-based or functional assay
[8] = molecular target: HIV-1 Env pseudovirus 6540.v4.c1 (HIV-1); experiment: cell-based or functional assay
[9] = molecular target: HIV-1 Env pseudovirus 6952.v1.c20 (HIV-1); experiment: cell-based or functional assay
[10] = molecular target: HIV-1 Env pseudovirus C2101.c01 (HIV-1); experiment: cell-based or functional assay
[11] = molecular target: HIV-1 Env pseudovirus 231965.c01 (HIV-1); experiment: cell-based or functional assay
[12] = molecular target: HIV-1 Env pseudovirus T278-50 (HIV-1); experiment: cell-based or functional assay
[13] = molecular target: HIV-1 Env pseudovirus X1193_c1 (HIV-1); experiment: cell-based or functional assay
[14] = molecular target: HIV-1 Env pseudovirus T251-18 (HIV-1); experiment: cell-based or functional assay
[15] = molecular target: HIV-1 Env pseudovirus 3817.v2.c59 (HIV-1); experiment: cell-based or functional assay
[16] = molecular target: HIV-1 Env pseudovirus P0402_c2_11 (HIV-1); experiment: cell-based or functional assay
[17] = molecular target: HIV-1 Env pseudovirus BJOX009000.02.4 (HIV-1); experiment: cell-based or functional assay
[18] = molecular target: HIV-1 Env pseudovirus 3103.v3.c10 (HIV-1); experiment: cell-based or functional assay
[19] = molecular target: HIV-1 Env pseudovirus BJOX015000.11.5 (HIV-1); experiment: cell-based or functional assay
[20] = molecular target: HIV-1 Env pseudovirus 89-F1_2_25 (HIV-1); experiment: cell-based or functional assay
[21] = molecular target: HIV-1 Env pseudovirus R3265.c06 (HIV-1); experiment: cell-based or functional assay
[22] = molecular target: HIV-1 Env pseudovirus T250-4 (HIV-1); experiment: cell-based or functional assay
[23] = molecular target: HIV-1 Env pseudovirus 620345.c01 (HIV-1); experiment: cell-based or functional assay
[24] = molecular target: HIV-1 Env pseudovirus T255-34 (HIV-1); experiment: cell-based or functional assay
[25] = molecular target: HIV-1 Env pseudovirus C3347.c11 (HIV-1); experiment: cell-based or functional assay
[26] = molecular target: HIV-1 Env pseudovirus 6480.v4.c25 (HIV-1); experiment: cell-based or functional assay
[27] = molecular target: HIV-1 Env pseudovirus P1981_C5_3 (HIV-1); experiment: cell-based or functional assay
[28] = molecular target: HIV-1 Env pseudovirus 231966.c02 (HIV-1); experiment: cell-based or functional assay
[29] = molecular target: HIV-1 Env pseudovirus A07412M1.vrc12 (HIV-1); experiment: cell-based or functional assay
[30] = molecular target: HIV-1 Env pseudovirus X1254_c3 (HIV-1); experiment: cell-based or functional assay
[31] = molecular target: HIV-1 Env pseudovirus 3016.v5.c45 (HIV-1); experiment: cell-based or functional assay
[32] = molecular target: HIV-1 Env pseudovirus C4118.c09 (HIV-1); experiment: cell-based or functional assay
[33] = molecular target: HIV-1 Env pseudovirus 6041.v3.c23 (HIV-1); experiment: cell-based or functional assay
[34] = molecular target: HIV-1 Env pseudovirus 3301.v1.c24 (HIV-1); experiment: cell-based or functional assay
[35] = molecular target: HIV-1 Env pseudovirus R1166.c01 (HIV-1); experiment: cell-based or functional assay
[36] = molecular target: HIV-1 Env pseudovirus X2131_C1_B5 (HIV-1); experiment: cell-based or functional assay
[37] = molecular target: HIV-1 Env pseudovirus X1632_S2_B10 (HIV-1); experiment: cell-based or functional assay
[38] = molecular target: HIV-1 Env pseudovirus 6545.v4.c1 (HIV-1); experiment: cell-based or functional assay
[39] = molecular target: HIV-1 Env pseudovirus 0815.v3.c3 (HIV-1); experiment: cell-based or functional assay
[40] = molecular target: HIV-1 Env pseudovirus 6811.v7.c18 (HIV-1); experiment: cell-based or functional assay
[41] = molecular target: HIV-1 Env pseudovirus R2184.c04 (HIV-1); experiment: cell-based or functional assay
[42] = molecular target: HIV-1 Env pseudovirus BJOX025000.01.1 (HIV-1); experiment: cell-based or functional assay
[43] = molecular target: HIV-1 93TH057 gp120 coree (HIV-1); experiment: EBI PISA on PDB 5te6 (structure not solved in this filing)
[44] = molecular target: monomeric HIV-1 Ba-L gp120 (HIV-1 Ba-L); experiment: retention on the gp120 affinity column
[45] = molecular target: HIV-1 93TH057 gp120 coree (HIV-1); experiment: EBI PISA on PDB 3ngb (structure not solved in this filing)

With 45-46 (antibody) the IC50 (Titer in TZM.bl cells) [1] was > 50 µg/mL, the IC80 (Titer in TZM.bl cells) [1] was > 50 µg/mL and the IC50 (Titer in TZM.bl cells) [2] was 0.07 µg/mL. For the same substance, the IC80 (Titer in TZM.bl cells) [2] was > 50 µg/mL, the IC50 (Titer in TZM.bl cells) [3] was 0.87 µg/mL and the IC80 (Titer in TZM.bl cells) [3] was 6.37 µg/mL. For the same substance, the IC50 (Titer in TZM.bl cells) [4] was 0.09 µg/mL, the IC80 (Titer in TZM.bl cells) [4] was 0.41 µg/mL and the IC50 (Titer in TZM.bl cells) [5] was > 50 µg/mL. For the same substance, the IC80 (Titer in TZM.bl cells) [5] was > 50 µg/mL, the IC50 (Titer in TZM.bl cells) [6] was 1.79 µg/mL and the IC80 (Titer in TZM.bl cells) [6] was 18 µg/mL. For the same substance, the IC50 (Titer in TZM.bl cells) [7] was 0.3 µg/mL, the IC80 (Titer in TZM.bl cells) [7] was 1.49 µg/mL and the IC50 (Titer in TZM.bl cells) [8] was > 50 µg/mL. For the same substance, the IC80 (Titer in TZM.bl cells) [8] was > 50 µg/mL, the IC50 (Titer in TZM.bl cells) [9] was 0.02 µg/mL and the IC80 (Titer in TZM.bl cells) [9] was 0.07 µg/mL. The IC50 (Titer in TZM.bl cells) [10] was 12.8 µg/mL, the IC80 (Titer in TZM.bl cells) [10] was > 50 µg/mL and the IC50 (Titer in TZM.bl cells) [11] was 0.1 µg/mL. For the same substance, the IC80 (Titer in TZM.bl cells) [11] was 0.1 µg/mL, the IC50 (Titer in TZM.bl cells) [12] was > 30 µg/mL and the IC80 (Titer in TZM.bl cells) [12] was > 30 µg/mL. It also gave an IC50 (Titer in TZM.bl cells) [13] of 0.04 µg/mL, an IC80 (Titer in TZM.bl cells) [13] of 0.16 µg/mL and an IC50 (Titer in TZM.bl cells) [14] of 5.26 µg/mL. The IC80 (Titer in TZM.bl cells) [14] was 5.26 µg/mL, the IC50 (Titer in TZM.bl cells) [15] was > 50 µg/mL and the IC80 (Titer in TZM.bl cells) [15] was > 50 µg/mL. It also gave an IC50 (Titer in TZM.bl cells) [16] of 0.06 µg/mL, an IC80 (Titer in TZM.bl cells) [16] of 0.26 µg/mL and an IC50 (Titer in TZM.bl cells) [17] of 0.26 µg/mL. For the same substance, the IC80 (Titer in TZM.bl cells) [17] was 1.16 µg/mL, the IC50 (Titer in TZM.bl cells) [18] was 1.66 µg/mL and the IC80 (Titer in TZM.bl cells) [18] was 6.57 µg/mL. The IC50 (Titer in TZM.bl cells) [19] was 0.06 µg/mL, the IC80 (Titer in TZM.bl cells) [19] was 0.38 µg/mL and the IC50 (Titer in TZM.bl cells) [20] was > 50 µg/mL. For the same substance, the IC80 (Titer in TZM.bl cells) [20] was > 50 µg/mL, the IC50 (Titer in TZM.bl cells) [21] was 0.04 µg/mL and the IC80 (Titer in TZM.bl cells) [21] was 0.44 µg/mL. The IC50 (Titer in TZM.bl cells) [22] was > 30 µg/mL, the IC80 (Titer in TZM.bl cells) [22] was > 30 µg/mL and the IC50 (Titer in TZM.bl cells) [23] was > 30 µg/mL. For the same substance, the IC80 (Titer in TZM.bl cells) [23] was > 30 µg/mL, the IC50 (Titer in TZM.bl cells) [24] was 0.23 µg/mL and the IC80 (Titer in TZM.bl cells) [24] was 2.38 µg/mL. The IC50 (Titer in TZM.bl cells) [25] was 0.03 µg/mL, the IC80 (Titer in TZM.bl cells) [25] was 0.18 µg/mL and the IC50 (Titer in TZM.bl cells) [26] was 0.02 µg/mL. The IC80 (Titer in TZM.bl cells) [26] was 0.08 µg/mL, the IC50 (Titer in TZM.bl cells) [27] was 0.05 µg/mL and the IC80 (Titer in TZM.bl cells) [27] was 0.22 µg/mL. It also gave an IC50 (Titer in TZM.bl cells) [28] of 1.11 µg/mL, an IC80 (Titer in TZM.bl cells) [28] of 11.4 µg/mL and an IC50 (Titer in TZM.bl cells) [29] of 0.03 µg/mL. For the same substance, the IC80 (Titer in TZM.bl cells) [29] was 0.13 µg/mL, the IC50 (Titer in TZM.bl cells) [30] was 0.08 µg/mL and the IC80 (Titer in TZM.bl cells) [30] was 0.08 µg/mL. The IC50 (Titer in TZM.bl cells) [31] was > 30 µg/mL, the IC80 (Titer in TZM.bl cells) [31] was > 30 µg/mL and the IC50 (Titer in TZM.bl cells) [32] was 0.14 µg/mL. For the same substance, the IC80 (Titer in TZM.bl cells) [32] was 0.91 µg/mL, the IC50 (Titer in TZM.bl cells) [33] was 0.01 µg/mL and the IC80 (Titer in TZM.bl cells) [33] was 0.04 µg/mL. It also gave an IC50 (Titer in TZM.bl cells) [34] of 0.01 µg/mL, an IC80 (Titer in TZM.bl cells) [34] of 0.03 µg/mL and an IC50 (Titer in TZM.bl cells) [35] of 1.68 µg/mL. For the same substance, the IC80 (Titer in TZM.bl cells) [35] was 1.68 µg/mL, the IC50 (Titer in TZM.bl cells) [36] was 0.2 µg/mL and the IC80 (Titer in TZM.bl cells) [36] was 0.9 µg/mL. The IC50 (Titer in TZM.bl cells) [37] was 0.07 µg/mL, the IC80 (Titer in TZM.bl cells) [37] was > 50 µg/mL and the IC50 (Titer in TZM.bl cells) [38] was > 50 µg/mL. For the same substance, the IC80 (Titer in TZM.bl cells) [38] was > 50 µg/mL, the IC50 (Titer in TZM.bl cells) [39] was 0.01 µg/mL and the IC80 (Titer in TZM.bl cells) [39] was 0.03 µg/mL. For the same substance, the IC50 (Titer in TZM.bl cells) [40] was 0.03 µg/mL, the IC80 (Titer in TZM.bl cells) [40] was 0.13 µg/mL and the IC50 (Titer in TZM.bl cells) [41] was 0.03 µg/mL. For the same substance, the IC80 (Titer in TZM.bl cells) [41] was 0.12 µg/mL, the IC50 (Titer in TZM.bl cells) [42] was 0.18 µg/mL and the IC80 (Titer in TZM.bl cells) [42] was 10 µg/mL.
Substance N6 Fab has a buried surface area, CDR H3 [43] of 123 Å^2.
With Synagis (antibody) the recovery on the gp120 affinity column [44] was < 1%.
Work on VRC01 Fab yielded a buried surface area, CDR H3 [45] of 160 Å^2.
